Data taken from publication PMC7407374, “Addressing the Molecular Mechanism of Longitudinal Lamin Assembly Using Chimeric Fusions” (Cells, 2020).

B1: LA 22-70-Eb1 (domain or fragment, UniProt P02545 22-70, looked up)
chain: SPTRITRLQEKEDLQELNDRLAVYIDRVRSLETENAGLRLRITESEEVVDFYFGKLRNIELICQENEGENDPVLQRIVDILYATDE
notes: human lamin A, residues 22-70: truncated head domain, coil1A and the first three residues of linker L1; also called N-terminal fragment; N-terminal construct; source: E. coli Rosetta 2 (DE3) pLysS, purified (Ni column, tag cleavage, second Ni column, SEC); not shown: His6, N-terminal, cleaved; SUMO, N-terminal, cleaved
B2: LA 17-70-Eb1 (domain or fragment, UniProt P02545 17-70, looked up)
chain: SSTPLSPTRITRLQEKEDLQELNDRLAVYIDRVRSLETENAGLRLRITESEEVVDFYFGKLRNIELICQENEGENDPVLQRIVDILYATDE
notes: human lamin A, residues 17-70: truncated head domain, coil1A and the first three residues of linker L1; also called N-terminal fragment; N-terminal construct; source: E. coli Rosetta 2 (DE3) pLysS, purified (Ni column, tag cleavage, second Ni column, SEC); not shown: His6, N-terminal, cleaved; SUMO, N-terminal, cleaved

Experiments:
[1] = target: Gp7_(F40C)-LA 327-403 (bacteriophage φ29 | human) (UniProt P13848); test: SEC-MALS; inline MALS (Dawn Heleos) on Superdex 200 Increase 10/300 GL at 20 °C; individual proteins and 1:1 mixtures; 150 mM NaCl with 10 mM Hepes pH 7.5 or 10 mM TEA pH 7.0
[2] = target: the molecule itself; test: as above

Row | Molecule | stoichiometry N [1] | stoichiometry N [2]
1 | Gp7_(F40C)-LA 327-403 (from UniProt P13848 1-49; P02545 327-403) (domain or fragment) | 2 | 
2 | B1 |  | 2
3 | B2 |  | 2
